Results: US11807877

How the values were obtained:
[1] = target: Staphylococcus aureus Cas9, wild-type (Staphylococcus aureus) (UniProt J7RUA5); experiment: cell-based or functional assay
[2] = target: Streptococcus pyogenes Cas9, wild-type (Streptococcus pyogenes) (UniProt Q99ZW2); experiment: cell-based or functional assay
Sequence of UniProt Q99ZW2 (Q99ZW2 whole entry): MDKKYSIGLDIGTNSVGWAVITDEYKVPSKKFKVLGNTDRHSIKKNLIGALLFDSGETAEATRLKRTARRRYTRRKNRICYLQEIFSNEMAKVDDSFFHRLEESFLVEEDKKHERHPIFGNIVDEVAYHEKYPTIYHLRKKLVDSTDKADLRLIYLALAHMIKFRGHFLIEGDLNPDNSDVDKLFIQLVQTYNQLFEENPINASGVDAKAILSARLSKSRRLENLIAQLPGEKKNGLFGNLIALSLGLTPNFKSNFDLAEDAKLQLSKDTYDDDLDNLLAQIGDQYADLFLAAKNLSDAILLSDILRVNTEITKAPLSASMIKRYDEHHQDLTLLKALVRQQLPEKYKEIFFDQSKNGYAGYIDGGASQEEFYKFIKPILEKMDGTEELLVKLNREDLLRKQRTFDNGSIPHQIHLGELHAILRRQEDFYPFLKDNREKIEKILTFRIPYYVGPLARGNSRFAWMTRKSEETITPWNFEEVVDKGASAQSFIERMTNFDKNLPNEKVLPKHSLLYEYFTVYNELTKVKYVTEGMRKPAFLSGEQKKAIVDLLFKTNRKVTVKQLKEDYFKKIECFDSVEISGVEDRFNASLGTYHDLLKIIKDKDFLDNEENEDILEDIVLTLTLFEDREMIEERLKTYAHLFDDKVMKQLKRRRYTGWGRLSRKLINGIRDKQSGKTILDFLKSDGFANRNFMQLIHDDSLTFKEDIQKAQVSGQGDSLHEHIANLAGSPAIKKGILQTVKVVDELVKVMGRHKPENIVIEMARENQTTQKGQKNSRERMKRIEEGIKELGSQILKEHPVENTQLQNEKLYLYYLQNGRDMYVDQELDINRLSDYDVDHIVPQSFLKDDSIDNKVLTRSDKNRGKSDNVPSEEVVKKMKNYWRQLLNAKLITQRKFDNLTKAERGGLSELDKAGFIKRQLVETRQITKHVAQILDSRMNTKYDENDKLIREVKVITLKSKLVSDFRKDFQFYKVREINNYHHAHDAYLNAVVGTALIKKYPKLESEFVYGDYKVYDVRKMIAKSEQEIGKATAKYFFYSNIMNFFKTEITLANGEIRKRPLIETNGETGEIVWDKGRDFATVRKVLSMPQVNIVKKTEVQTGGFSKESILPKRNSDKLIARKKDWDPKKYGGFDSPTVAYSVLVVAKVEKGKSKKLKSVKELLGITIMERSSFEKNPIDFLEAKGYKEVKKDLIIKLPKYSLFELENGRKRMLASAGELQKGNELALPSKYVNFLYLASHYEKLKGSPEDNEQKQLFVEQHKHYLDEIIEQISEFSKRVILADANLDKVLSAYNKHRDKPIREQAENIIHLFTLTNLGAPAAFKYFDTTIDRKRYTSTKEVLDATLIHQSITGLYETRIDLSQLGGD

Sequence of UniProt J7RUA5 (J7RUA5 2-1053, tags left off): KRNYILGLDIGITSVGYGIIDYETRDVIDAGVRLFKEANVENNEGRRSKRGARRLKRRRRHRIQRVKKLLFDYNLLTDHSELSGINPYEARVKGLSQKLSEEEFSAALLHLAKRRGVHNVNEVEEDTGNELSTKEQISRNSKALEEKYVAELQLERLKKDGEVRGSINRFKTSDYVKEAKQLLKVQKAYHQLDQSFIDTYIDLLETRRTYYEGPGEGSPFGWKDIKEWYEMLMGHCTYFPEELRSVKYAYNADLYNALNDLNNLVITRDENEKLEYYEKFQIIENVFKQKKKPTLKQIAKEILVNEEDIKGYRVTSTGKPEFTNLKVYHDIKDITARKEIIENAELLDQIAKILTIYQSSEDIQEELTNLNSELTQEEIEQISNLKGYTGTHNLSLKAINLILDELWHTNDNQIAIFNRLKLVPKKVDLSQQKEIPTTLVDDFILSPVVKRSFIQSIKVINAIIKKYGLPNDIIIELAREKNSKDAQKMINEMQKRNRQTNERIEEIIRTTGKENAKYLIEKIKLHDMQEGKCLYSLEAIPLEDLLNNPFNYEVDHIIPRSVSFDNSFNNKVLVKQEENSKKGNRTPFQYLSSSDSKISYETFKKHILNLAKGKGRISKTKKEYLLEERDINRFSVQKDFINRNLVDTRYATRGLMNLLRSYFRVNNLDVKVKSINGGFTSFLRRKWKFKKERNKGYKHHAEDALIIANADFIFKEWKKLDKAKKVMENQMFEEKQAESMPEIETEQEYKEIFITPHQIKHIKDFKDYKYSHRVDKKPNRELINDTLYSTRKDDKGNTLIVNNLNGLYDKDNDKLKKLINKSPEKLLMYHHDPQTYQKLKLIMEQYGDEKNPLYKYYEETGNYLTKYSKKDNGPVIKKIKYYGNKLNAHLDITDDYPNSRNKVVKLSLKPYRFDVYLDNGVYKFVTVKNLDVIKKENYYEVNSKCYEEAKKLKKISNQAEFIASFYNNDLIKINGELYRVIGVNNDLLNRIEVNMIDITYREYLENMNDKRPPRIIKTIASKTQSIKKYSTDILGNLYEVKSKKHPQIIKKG

| Substance | inhibition of Cas9 cleavage activity in the quenched FRET fluorescence assay [1] [µM] | inhibition of Cas9 cleavage activity in the quenched FRET fluorescence assay [2] [µM] |
| --- | --- | --- |
| AcrIIA4 anti-CRISPR protein | > 10 | < 0.03 |
| AcrIIC1 anti-CRISPR protein | > 10 | > 10 |
